Here are results for 14 sequences from the supplement of paper PMC9233669.

This sample holds only a part of the variants without activity.

The test system of one data set is biotinyl-Phe-oxazolone. Briefly: self-aminoacylation, catalytic enhancement (BFO) (fold over background); higher = more active; k-Seq, kA / k0A0; sequences stand for … in GGGAAUGGAUCCACAUCUACGAAUUC…UUCACUGCAGACUUGACGAAGCUG
The gist of the method:
(§1)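 Each biotinyl-aminoacyl-oxazolone, at 2–1250 μM, was incubated with mutagenized RNA pools (0.43 μM) carrying a 21-nt variable region. The 50 μL reactions contained HEPES/NaCl/KCl/MgCl2/CaCl2 buffer with 5% acetonitrile at pH 6.9–7.0 and ran for 90 minutes at room temperature. After streptavidin capture, RNA was measured by qPCR in triplicate and by Illumina sequencing, and catalytic enhancement was calculated as median kA over the uncatalyzed rate from a pseudo-first-order fit of per-sequence fraction reacted.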

In a further data set the test system is biotinyl-Leu-oxazolone. Description: self-aminoacylation, catalytic enhancement (BLO) (fold over background); higher = more active; k-Seq, kA / k0A0; sequences stand for … in GGGAAUGGAUCCACAUCUACGAAUUC…UUCACUGCAGACUUGACGAAGCUG
In a few lines: as §1

For another data set, the system named is biotinyl-Ile-oxazolone. Briefly: self-aminoacylation, catalytic enhancement (BIO) (fold over background); higher = more active; k-Seq, kA / k0A0; sequences stand for … in GGGAAUGGAUCCACAUCUACGAAUUC…UUCACUGCAGACUUGACGAAGCUG
The gist of the method:
as §1

For a further data set, the system named is biotinyl-Trp-oxazolone. Description: self-aminoacylation, catalytic enhancement (BWO) (fold over background); higher = more active; k-Seq, kA / k0A0; sequences stand for … in GGGAAUGGAUCCACAUCUACGAAUUC…UUCACUGCAGACUUGACGAAGCUG
The gist of the method:
as §1

In another data set the test system is biotinyl-Met-oxazolone. Briefly: self-aminoacylation, catalytic enhancement (BMO) (fold over background); higher = more active; k-Seq, kA / k0A0; sequences stand for … in GGGAAUGGAUCCACAUCUACGAAUUC…UUCACUGCAGACUUGACGAAGCUG
The gist of the method: as §1

In another data set the test system is biotinyl-Val-oxazolone. Description: self-aminoacylation, catalytic enhancement (BVO) (fold over background); higher = more active; k-Seq, kA / k0A0; sequences stand for … in GGGAAUGGAUCCACAUCUACGAAUUC…UUCACUGCAGACUUGACGAAGCUG
The gist of the method: as §1

“UUUACCUUGGUCAUCGAGUGA [Fam2.1 aminoacylation ribozyme variant]”: the self-aminoacylation turned out to be 18.6 in the data set with biotinyl-Phe-oxazolone; 5.86 in the data set on biotinyl-Leu-oxazolone; 3.93 in the data set on biotinyl-Ile-oxazolone; 8.55 with biotinyl-Trp-oxazolone; 5.9 in the data set on biotinyl-Met-oxazolone; 4.04 with biotinyl-Val-oxazolone.
Take “UUUCACCAAGGUCAUCGGGUG [Fam2.2 aminoacylation ribozyme variant]”: the self-aminoacylation in the data set with biotinyl-Phe-oxazolone worked out at 58.3; with biotinyl-Leu-oxazolone, 10.3; with biotinyl-Ile-oxazolone it was 5.54; with biotinyl-Trp-oxazolone, 10.2; in the data set on biotinyl-Met-oxazolone, 9.41; in the data set with biotinyl-Val-oxazolone, 6.02.
As to “UUUCACCCAGGUCAUCGGGUG [Fam2.2 aminoacylation ribozyme variant]”, the self-aminoacylation was 35.1 with biotinyl-Phe-oxazolone; 4.54 with biotinyl-Leu-oxazolone; 3.32 in the data set with biotinyl-Ile-oxazolone; 5.64 in the data set on biotinyl-Trp-oxazolone; 4.86 in the data set on biotinyl-Met-oxazolone; 4.69 in the data set with biotinyl-Val-oxazolone.
Consider “UUUCACCUAGGUCAACGGGUG [Fam2.2 aminoacylation ribozyme variant]”, for which the self-aminoacylation worked out at 15.6 with biotinyl-Phe-oxazolone; 2.65 in the data set with biotinyl-Leu-oxazolone; 2.27 with biotinyl-Ile-oxazolone; 3.09 in the data set with biotinyl-Trp-oxazolone; 3 in the data set with biotinyl-Met-oxazolone; 2.25 with biotinyl-Val-oxazolone.
With “UUUCACCUAGGUCAUCAGGUG [Fam2.2 aminoacylation ribozyme variant]”, the self-aminoacylation with biotinyl-Phe-oxazolone stood at 1.36; in the data set on biotinyl-Leu-oxazolone, 1.52; in the data set on biotinyl-Ile-oxazolone it was 1.58; with biotinyl-Trp-oxazolone it was 1.52; with biotinyl-Met-oxazolone, 1.79; in the data set with biotinyl-Val-oxazolone, 1.7.
As to “UUUCACCUAGGUCAUCCGGUG [Fam2.2 aminoacylation ribozyme variant]”, the self-aminoacylation with biotinyl-Phe-oxazolone was found to be 35.9; in the data set on biotinyl-Leu-oxazolone it was 5.87; in the data set on biotinyl-Ile-oxazolone, 4.39; in the data set with biotinyl-Trp-oxazolone it was 6.5; with biotinyl-Met-oxazolone, 4.88; in the data set on biotinyl-Val-oxazolone, 4.32.
Take “UUUCACCUAGGUCAUCGGGGG [Fam2.2 aminoacylation ribozyme variant]”: the self-aminoacylation with biotinyl-Phe-oxazolone is 21.3; with biotinyl-Leu-oxazolone, 4.45; in the data set on biotinyl-Ile-oxazolone it was 3.52; in the data set with biotinyl-Trp-oxazolone, 3.77; with biotinyl-Met-oxazolone, 2.73; with biotinyl-Val-oxazolone, 3.25.
For “UUUCACCUAGGUCAUCGGGUG [Fam2.2 aminoacylation ribozyme variant]”, the self-aminoacylation with biotinyl-Phe-oxazolone came to 103; with biotinyl-Leu-oxazolone it was 19.5; with biotinyl-Ile-oxazolone it was 9.15; with biotinyl-Trp-oxazolone, 13.4; in the data set with biotinyl-Met-oxazolone it was 15.9; in the data set with biotinyl-Val-oxazolone, 8.76.
For “UUUCACCUAGGUCGUCGGGUG [Fam2.2 aminoacylation ribozyme variant]”, the self-aminoacylation in the data set on biotinyl-Phe-oxazolone worked out at 11.2; with biotinyl-Leu-oxazolone, 2.44; with biotinyl-Ile-oxazolone it was 1.9; in the data set on biotinyl-Trp-oxazolone it was 3; in the data set on biotinyl-Met-oxazolone, 2.75; in the data set with biotinyl-Val-oxazolone, 2.27.
With “UUUCACCUCGGUCAUCGGGUG [Fam2.2 aminoacylation ribozyme variant]”, the self-aminoacylation in the data set on biotinyl-Phe-oxazolone amounted to 38.3; with biotinyl-Leu-oxazolone it was 5.28; in the data set with biotinyl-Ile-oxazolone it was 3.61; in the data set on biotinyl-Trp-oxazolone, 6.19; in the data set with biotinyl-Met-oxazolone, 3.79; with biotinyl-Val-oxazolone, 4.79.
With “UUUCACCUUGGUCAUCGGGUG [Fam2.2 aminoacylation ribozyme variant]”, the self-aminoacylation was 45.4 with biotinyl-Phe-oxazolone; 5.87 in the data set with biotinyl-Leu-oxazolone; 4.31 in the data set with biotinyl-Ile-oxazolone; 6.96 in the data set on biotinyl-Trp-oxazolone; 6.53 with biotinyl-Met-oxazolone; 5.49 in the data set on biotinyl-Val-oxazolone.
For “UUUCAUCUAGGUCAUCGGGUG [Fam2.2 aminoacylation ribozyme variant]”, the self-aminoacylation in the data set with biotinyl-Phe-oxazolone is 33.7; with biotinyl-Leu-oxazolone, 6.45; in the data set on biotinyl-Ile-oxazolone it was 4.37; in the data set on biotinyl-Trp-oxazolone, 6.47; in the data set with biotinyl-Met-oxazolone, 5.04; with biotinyl-Val-oxazolone, 4.51.
Take “UUUCCCCUGGUCAUCGAGUGA [Fam2.1 aminoacylation ribozyme variant]”: the self-aminoacylation in the data set with biotinyl-Phe-oxazolone came to 39.1; with biotinyl-Leu-oxazolone, 5.44; in the data set with biotinyl-Ile-oxazolone, 3.26; in the data set on biotinyl-Trp-oxazolone it was 7.7; in the data set with biotinyl-Met-oxazolone, 6.12; with biotinyl-Val-oxazolone, 3.87.
Turning to “UUUCUCCUAGGUCAUCGGGUG [Fam2.2 aminoacylation ribozyme variant]”, the self-aminoacylation in the data set with biotinyl-Phe-oxazolone was 32.5; in the data set on biotinyl-Leu-oxazolone it was 9.78; with biotinyl-Ile-oxazolone, 5.35; in the data set with biotinyl-Trp-oxazolone, 8.02; in the data set with biotinyl-Met-oxazolone it was 7.74; in the data set on biotinyl-Val-oxazolone, 5.4.
